# Experimental data: patent publication US7930107
# Assays:
# [1] = biological target: GST-fused human V158 FcγRIIIa (extracellular region) (human) (UniProt P08637); test: SPR, GST-FcγRIIIa V158 on chip
# [2] = biological target: GST-fused human V158 FcγRIIIa (extracellular region) (human) (UniProt P08637); test: AlphaScreen competition with biotinylated WT AC10
# GST-fused human V158 FcγRIIIa (extracellular region) (human), sequence (P08637 17-208 F176V): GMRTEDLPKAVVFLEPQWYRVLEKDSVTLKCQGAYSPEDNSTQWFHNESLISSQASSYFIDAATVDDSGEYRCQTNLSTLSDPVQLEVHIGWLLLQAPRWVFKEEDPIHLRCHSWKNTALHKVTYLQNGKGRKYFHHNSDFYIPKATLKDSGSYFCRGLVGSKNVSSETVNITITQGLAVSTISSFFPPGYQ
substance,measurement,setting,value
WT AC10 antibody (L0/H0),Kd,[1],18.6 nM
same,IC50,[2],87.2 nM
